The text below walks through data of US10800813 (Bicycle, dated 2020).

Numbered stars: 1 amine (or outer) side, 2 acyl side, 3 side chain; on linkers, the order of the positions; unused ones are H or OH. Bridge positions count the residues as written; N and C are the ends. Square brackets hold non-standard residues; d marks the D form. Ends that are not written are not given here. Phe(4-guanidino) = N=C(N)Nc1ccc(C[C@H](N)C(=O)O)cc1; TBMB = c1c(C[*:1])cc(C[*:3])cc1C[*:2]; NMeR = CN[C@@H](CCCNC(=N)N)C(=O)O; hArg = N=C(N)NCCCC[C@H](N)C(=O)O; β3hR = N=C(N)NCCC[C@H](N)CC(=O)O; Cit = NC(=O)NCCC[C@H](N)C(=O)O; Agb = N=C(N)NCC[C@H](N)C(=O)O; Agp = N=C(N)NC[C@H](N)C(=O)O; NMeC = CN[C@@H](CS)C(=O)O; Aze = O=C(O)[C@@H]1CCN1 Bounds are passed on as bounds.

To fix the notation:
B1: Ac-(06-34-18) NMeCys2 (peptide)
peptide: Ac-CSWPAR[NMeC]LHQDLC-NH2
modifications: linker 1-7-13 via TBMB
SMILES: CC(=O)N[C@H]1CSCc2cc3cc(c2)CSC[C@@H](C(=O)N[C@@H](CC(C)C)C(=O)N[C@@H](Cc2c[nH]cn2)C(=O)N[C@@H](CCC(N)=O)C(=O)N[C@@H](CC(=O)O)C(=O)N[C@@H](CC(C)C)C(=O)N[C@H](C(N)=O)CSC3)N(C)C(=O)[C@H](CCCNC(=N)N)NC(=O)[C@H](C)NC(=O)[C@@H]2CCCN2C(=O)[C@H](Cc2c[nH]c3ccccc23)NC(=O)[C@H](CO)NC1=O
B2: Ac-(06-34-18) Agb5 (peptide)
peptide: Ac-CSWPA[Agb]CLHQDLC-NH2
modifications: linker 1-7-13 via TBMB
SMILES: CC(=O)N[C@H]1CSCc2cc3cc(c2)CSC[C@H](NC(=O)[C@H](CCNC(=N)N)NC(=O)[C@H](C)NC(=O)[C@@H]2CCCN2C(=O)[C@H](Cc2c[nH]c4ccccc24)NC(=O)[C@H](CO)NC1=O)C(=O)N[C@@H](CC(C)C)C(=O)N[C@@H](Cc1c[nH]cn1)C(=O)N[C@@H](CCC(N)=O)C(=O)N[C@@H](CC(=O)O)C(=O)N[C@@H](CC(C)C)C(=O)N[C@H](C(N)=O)CSC3
B3: Ac-(06-34-18) Cit5 (peptide)
peptide: Ac-CSWPA[Cit]CLHQDLC-NH2
modifications: linker 1-7-13 via TBMB
SMILES: CC(=O)N[C@H]1CSCc2cc3cc(c2)CSC[C@H](NC(=O)[C@H](CCCNC(N)=O)NC(=O)[C@H](C)NC(=O)[C@@H]2CCCN2C(=O)[C@H](Cc2c[nH]c4ccccc24)NC(=O)[C@H](CO)NC1=O)C(=O)N[C@@H](CC(C)C)C(=O)N[C@@H](Cc1c[nH]cn1)C(=O)N[C@@H](CCC(N)=O)C(=O)N[C@@H](CC(=O)O)C(=O)N[C@@H](CC(C)C)C(=O)N[C@H](C(N)=O)CSC3
B4: Ac-(06-34-18) βhomoArg5 (peptide)
peptide: Ac-CSWPA[β3hR]CLHQDLC-NH2
modifications: linker 1-7-13 via TBMB
SMILES: CC(=O)N[C@H]1CSCc2cc3cc(c2)CSC[C@H](NC(=O)C[C@H](CCCNC(=N)N)NC(=O)[C@H](C)NC(=O)[C@@H]2CCCN2C(=O)[C@H](Cc2c[nH]c4ccccc24)NC(=O)[C@H](CO)NC1=O)C(=O)N[C@@H](CC(C)C)C(=O)N[C@@H](Cc1c[nH]cn1)C(=O)N[C@@H](CCC(N)=O)C(=O)N[C@@H](CC(=O)O)C(=O)N[C@@H](CC(C)C)C(=O)N[C@H](C(N)=O)CSC3
B5: Ac-(06-34-18) Δ Arg5 (peptide)
peptide: Ac-CSWPACLHQDLC-NH2
modifications: linker 1-6-12 via TBMB
SMILES: CC(=O)N[C@H]1CSCc2cc3cc(c2)CSC[C@H](NC(=O)[C@H](C)NC(=O)[C@@H]2CCCN2C(=O)[C@H](Cc2c[nH]c4ccccc24)NC(=O)[C@H](CO)NC1=O)C(=O)N[C@@H](CC(C)C)C(=O)N[C@@H](Cc1c[nH]cn1)C(=O)N[C@@H](CCC(N)=O)C(=O)N[C@@H](CC(=O)O)C(=O)N[C@@H](CC(C)C)C(=O)N[C@H](C(N)=O)CSC3
notes: Residue ranges derived from the stated deletion of Arg5
B6: Ac-(06-34-18) Agp5 (peptide)
peptide: Ac-CSWPA[Agp]CLHQDLC-NH2
modifications: linker 1-7-13 via TBMB
SMILES: CC(=O)N[C@H]1CSCc2cc3cc(c2)CSC[C@H](NC(=O)[C@H](CNC(=N)N)NC(=O)[C@H](C)NC(=O)[C@@H]2CCCN2C(=O)[C@H](Cc2c[nH]c4ccccc24)NC(=O)[C@H](CO)NC1=O)C(=O)N[C@@H](CC(C)C)C(=O)N[C@@H](Cc1c[nH]cn1)C(=O)N[C@@H](CCC(N)=O)C(=O)N[C@@H](CC(=O)O)C(=O)N[C@@H](CC(C)C)C(=O)N[C@H](C(N)=O)CSC3
B7: Ac-(06-34-18) D-Ala4 (peptide)
peptide: Ac-CSWP[dA]RCLHQDLC-NH2
modifications: linker 1-7-13 via TBMB
SMILES: CC(=O)N[C@H]1CSCc2cc3cc(c2)CSC[C@H](NC(=O)[C@H](CCCNC(=N)N)NC(=O)[C@@H](C)NC(=O)[C@@H]2CCCN2C(=O)[C@H](Cc2c[nH]c4ccccc24)NC(=O)[C@H](CO)NC1=O)C(=O)N[C@@H](CC(C)C)C(=O)N[C@@H](Cc1c[nH]cn1)C(=O)N[C@@H](CCC(N)=O)C(=O)N[C@@H](CC(=O)O)C(=O)N[C@@H](CC(C)C)C(=O)N[C@H](C(N)=O)CSC3
B8: Ac-(06-34-18) D-Arg5 (peptide)
peptide: Ac-CSWPA[dR]CLHQDLC-NH2
modifications: linker 1-7-13 via TBMB
SMILES: CC(=O)N[C@H]1CSCc2cc3cc(c2)CSC[C@H](NC(=O)[C@@H](CCCNC(=N)N)NC(=O)[C@H](C)NC(=O)[C@@H]2CCCN2C(=O)[C@H](Cc2c[nH]c4ccccc24)NC(=O)[C@H](CO)NC1=O)C(=O)N[C@@H](CC(C)C)C(=O)N[C@@H](Cc1c[nH]cn1)C(=O)N[C@@H](CCC(N)=O)C(=O)N[C@@H](CC(=O)O)C(=O)N[C@@H](CC(C)C)C(=O)N[C@H](C(N)=O)CSC3
B9: Ac-(06-34-18) D-Trp2 (peptide)
peptide: Ac-CS[dW]PARCLHQDLC-NH2
modifications: linker 1-7-13 via TBMB
SMILES: CC(=O)N[C@H]1CSCc2cc3cc(c2)CSC[C@H](NC(=O)[C@H](CCCNC(=N)N)NC(=O)[C@H](C)NC(=O)[C@@H]2CCCN2C(=O)[C@@H](Cc2c[nH]c4ccccc24)NC(=O)[C@H](CO)NC1=O)C(=O)N[C@@H](CC(C)C)C(=O)N[C@@H](Cc1c[nH]cn1)C(=O)N[C@@H](CCC(N)=O)C(=O)N[C@@H](CC(=O)O)C(=O)N[C@@H](CC(C)C)C(=O)N[C@H](C(N)=O)CSC3
B10: Ac-(06-34-18) Phe2 Aze3Tyr4 NMeArg5 (peptide)
peptide: Ac-CSF[Aze]Y[NMeR]CLHQDLC-NH2
modifications: linker 1-7-13 via TBMB
SMILES: CC(=O)N[C@H]1CSCc2cc3cc(c2)CSC[C@H](NC(=O)[C@H](CCCNC(=N)N)N(C)C(=O)[C@H](Cc2ccc(O)cc2)NC(=O)[C@@H]2CCN2C(=O)[C@H](Cc2ccccc2)NC(=O)[C@H](CO)NC1=O)C(=O)N[C@@H](CC(C)C)C(=O)N[C@@H](Cc1c[nH]cn1)C(=O)N[C@@H](CCC(N)=O)C(=O)N[C@@H](CC(=O)O)C(=O)N[C@@H](CC(C)C)C(=O)N[C@H](C(N)=O)CSC3
B11: Ac-(06-34-18) D-Cys2 (peptide)
peptide: Ac-CSWPAR[dC]LHQDLC-NH2
modifications: linker 1-7-13 via TBMB
SMILES: CC(=O)N[C@H]1CSCc2cc3cc(c2)CSC[C@@H](NC(=O)[C@H](CCCNC(=N)N)NC(=O)[C@H](C)NC(=O)[C@@H]2CCCN2C(=O)[C@H](Cc2c[nH]c4ccccc24)NC(=O)[C@H](CO)NC1=O)C(=O)N[C@@H](CC(C)C)C(=O)N[C@@H](Cc1c[nH]cn1)C(=O)N[C@@H](CCC(N)=O)C(=O)N[C@@H](CC(=O)O)C(=O)N[C@@H](CC(C)C)C(=O)N[C@H](C(N)=O)CSC3
B12: Ac-(06-34-18) D-Pro3 (peptide)
peptide: Ac-CSW[dP]ARCLHQDLC-NH2
modifications: linker 1-7-13 via TBMB
SMILES: CC(=O)N[C@H]1CSCc2cc3cc(c2)CSC[C@H](NC(=O)[C@H](CCCNC(=N)N)NC(=O)[C@H](C)NC(=O)[C@H]2CCCN2C(=O)[C@H](Cc2c[nH]c4ccccc24)NC(=O)[C@H](CO)NC1=O)C(=O)N[C@@H](CC(C)C)C(=O)N[C@@H](Cc1c[nH]cn1)C(=O)N[C@@H](CCC(N)=O)C(=O)N[C@@H](CC(=O)O)C(=O)N[C@@H](CC(C)C)C(=O)N[C@H](C(N)=O)CSC3

T1 sequence (P03952 20-638 limits assumed): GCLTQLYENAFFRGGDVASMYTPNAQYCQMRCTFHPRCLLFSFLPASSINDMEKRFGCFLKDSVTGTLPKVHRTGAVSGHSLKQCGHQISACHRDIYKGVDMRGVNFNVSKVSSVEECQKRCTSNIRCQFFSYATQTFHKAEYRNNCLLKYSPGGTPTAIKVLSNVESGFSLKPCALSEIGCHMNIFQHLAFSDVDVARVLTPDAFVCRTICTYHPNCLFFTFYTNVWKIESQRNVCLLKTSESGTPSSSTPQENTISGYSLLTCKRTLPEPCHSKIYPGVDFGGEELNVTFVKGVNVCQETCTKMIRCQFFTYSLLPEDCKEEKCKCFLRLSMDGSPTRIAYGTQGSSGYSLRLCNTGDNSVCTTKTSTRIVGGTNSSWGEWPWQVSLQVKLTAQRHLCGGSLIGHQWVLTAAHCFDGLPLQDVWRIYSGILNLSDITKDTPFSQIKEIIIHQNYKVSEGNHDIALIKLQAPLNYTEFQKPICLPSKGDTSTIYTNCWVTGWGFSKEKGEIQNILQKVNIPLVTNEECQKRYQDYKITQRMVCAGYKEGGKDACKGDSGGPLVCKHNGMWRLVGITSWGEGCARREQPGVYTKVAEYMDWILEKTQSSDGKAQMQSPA

One assay concerns the target T1, human plasma Kallikrein (human, UniProt P03952 20-638, limits assumed).
T1 construct: also called hPK; human PK
The assay is described as follows: enzyme inhibition assay.
B1: the Ki stood at 418 nM.

The target of the next assay is T1, human plasma Kallikrein. The assay is described as follows: enzyme inhibition assay. This is another data set of the same source.
In turn, B2 returned a Ki of 83 nM.

In turn, B3 displayed a Ki of 7860 nM.

In the case of B4, the Ki is 8.2 nM.

The molecule B5 returned a Ki above 100000 nM.

B6 returned a Ki of 1770 nM.

The target in another assay is T1, human plasma Kallikrein. Nature of the assay: enzyme inhibition assay. The source holds these as a separate data set.
As to B7, the “fold reduction of affinity against Ac-06-34-18(TMB)-NH2” value amounted to 7000 fold.

Consider B8, for which the “fold loss in potency against Ac-06-34-18(TMB)-NH2” value was 300 fold.

In the case of B9, the “fold loss in potency against Ac-06-34-18(TMB)-NH2” value is 45000 fold.

A further assay concerns the target T1, human plasma Kallikrein. The assay is described as follows: enzyme inhibition assay. The source holds these as a separate data set.
Ac-CSF[Aze]Y[hArg]CLHQDLC-NH2 (linker 1-7-13 via TBMB) [Ac-(06-34-18) Phe2 Aze3 Tyr4 HomoArg5] registered a Ki of 0.12 nM.

With B10, the affinity corresponds to a Ki of 0.97 nM.

For the molecule Ac-CSF[Aze]Y[Phe(4-guanidino)]CLHQDLC-NH2 (linker 1-7-13 via TBMB) [Ac-(06-34-18) Phe2 Aze3Tyr4 4GuanPhe5], the Ki turned out to be 0.36 nM.

Another assay addresses T1, human plasma Kallikrein. Nature of the assay: enzyme inhibition assay. This is another data set of the same source.
For the molecule B7, the affinity corresponds to a Ki of 1200 nM.

In turn, B8 had a Ki of 52 nM.

As to B11, the Ki came out at 234 nM.

B9 returned a Ki of 7560 nM.

On to B12, for which the Ki worked out at 680 nM.

For another assay, the target named is T1, human plasma Kallikrein. Nature of the assay: enzyme inhibition assay. The source holds these as a separate data set.
In turn, ACFDPCRVICA (linker 2-6-10 via TBMB, also called PK124) [3B9] showed a Ki of 90.8 nM.

Molecule ACFKNCRVNCA (linker 2-6-10 via TBMB, also called PK119) [3B2] registered a Ki of 9 nM.

With ACFKQCRVNCA (linker 2-6-10 via TBMB, also called PK118) [06-94], the Ki was 0.7 nM.

On to ACFPKCRVACA (linker 2-6-10 via TBMB, also called PK122) [3A3], for which the inhibition constant (Ki) came to 43.1 nM.

For the molecule ACFNKCRVNCA (linker 2-6-10 via TBMB; not fully specified (N-terminus, C-terminus), also called PK121) [06-64 (3x3 peptide of Table 3)], the Ki is 4.8 nM.

ACFYKCRVNCA (linker 2-6-10 via TBMB; not fully specified (N-terminus, C-terminus), also called PK120) [06-71] displayed a Ki of 15.2 nM.

The Ki is the equilibrium dissociation constant of an inhibitor or competing ligand from its target.
